The record followed here is US20160075755A1.

The assay concerns the target TGFβ1 (UniProt P01137). The experiment in a line: cell-based or functional assay.

Sequence of DNRII (truncated, dominant-negative TGFβ receptor II) (P37173 23-199): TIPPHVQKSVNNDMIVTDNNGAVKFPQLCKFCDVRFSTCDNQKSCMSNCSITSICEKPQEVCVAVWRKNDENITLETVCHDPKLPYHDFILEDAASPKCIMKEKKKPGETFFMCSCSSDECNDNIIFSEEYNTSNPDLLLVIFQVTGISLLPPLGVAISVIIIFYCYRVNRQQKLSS
Sequence of TGFβ1 (P01137 279-390 limits assumed): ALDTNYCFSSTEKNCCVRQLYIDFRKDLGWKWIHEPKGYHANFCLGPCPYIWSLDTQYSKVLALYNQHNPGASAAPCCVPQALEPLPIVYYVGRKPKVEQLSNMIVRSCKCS

For the substance “DNRII (truncated, dominant-negative TGFβ receptor II) (from UniProt P37173 23-199)”, the T cell expansion after 30 days in culture in the presence of TGFβ1 was determined as 0.72 fold; the Total Flux of firefly-luciferase-Du145 cells (express PSCA, produce TGFβ1) after 6 days of co-culture amounted to 1e+10 p/s; the fold expansion of 2G.CAR-PSCA(DNRII) T cells at 2 weeks of culture in the presence of TGFβ1 stood at 7.4 fold.
For “RIID4 (chimeric cytokine receptor: exodomain of TGFβRII linked to the endodomain of toll-like receptor (TLR) 4) (from UniProt P37173 23-166; O00206 632-839)”, the T cell expansion for >60 days in the presence of TGFβ1 was found to be 300000 fold; the Total Flux of firefly-luciferase-Du145 cells (express PSCA, produce TGFβ1) after 6 days of co-culture was determined as 9e+09 p/s; the fold expansion of 2G.CAR-PSCA(RIID4) T cells at 2 weeks of culture in the presence of TGFβ1 was found to be 21 fold; the transgenic T cell proliferation with TGFβ1 alone (no antigen) worked out at 0.04 fold.
